Measurements as given in PMC3901395, “Multivalent interactions of the SUMO-interaction motifs in RING finger protein 4 determine the specificity for chains of the SUMO” (Biochemical Journal, 2013).

Target: T1, mono-SUMO2 (UniProt P61956 12-93)
T1 construct: SUMO2-ΔN11 monomer (first 11 residues missing) ending with the C-terminal GG motif and a stop codon; The methods describe the monomers from the pGEX-4T2 plasmids as ΔN11; also called SUMO2-ΔN11 monomer; source: E. coli Rosetta 2(DE3)pLysS, purified (glutathione beads, thrombin cleavage, anion exchange, SEC)
T1 sequence (P61956 12-93): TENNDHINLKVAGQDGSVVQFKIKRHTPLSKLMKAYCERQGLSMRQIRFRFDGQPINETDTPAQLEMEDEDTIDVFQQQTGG
Assay: ITC; VP-ITC or ITC200; 25°C; ITC buffer (50 mM Tris/HCl, pH 7.5, 150 mM NaCl, 2 mM DTT, 5% glycerol); SUMOs titrated into a solution of the RNF4 construct or peptide (legends of Figures 1B, 2B); 20–30 injections up to 2–3-fold molar excess; values averaged from two to six titrations
Settings: both partners purified

B1: single PIAS1 peptide (peptide)
chain: KVEVIDLTIDSSSDEEEEEP
modifications: exact peptide ends are only in Figure 2A; limits set around the VIDLT core plus C-terminal acidic flank; termini unknown
- Kd: 16 µM
